# Values quoted from earlier work in paper PMC8144458.
# Columns and labels:
# Experiment in all cases: NMR
# Details in all cases: HdeA without client protein
# Asp47 = Asp47 (UniProt position 68, KDKPEDAVLDV)
# Asp51 = Asp51 (UniProt position 72, EDAVLDVQGIA)
# Glu46 = Glu46 (UniProt position 67, NKDKPEDAVLD)
substance,measurement,setting,value
Acid stress chaperone HdeA (Escherichia coli),pKa,Asp47,4.14
same,pKa,Asp51,3.83
same,pKa,Glu46,4.07
